These are literature values, as cited in PMC8125740.

The series deals with Amyloid beta (Homo sapiens) (UniProt P05067).

One may read the Kd as a measure of binding affinity in units of concentration. On to “Cellular prion protein (from UniProt P04156)”, for which the Kd is 1 nM.
